Kd data for 34 molecules are collected here from publication PMC9352680, “A comprehensive thermodynamic model for RNA binding by the Saccharomyces cerevisiae Pumilio protein PUF4”.

A word on the Kd: it is the constant that tells how readily two partners part at equilibrium. Low values mean a tighter complex, high ones a looser complex.

The labels stand for the following.
T1: PUF4 RNA-binding domain (Saccharomyces cerevisiae, UniProt P25339 537-888)
T1 sequence: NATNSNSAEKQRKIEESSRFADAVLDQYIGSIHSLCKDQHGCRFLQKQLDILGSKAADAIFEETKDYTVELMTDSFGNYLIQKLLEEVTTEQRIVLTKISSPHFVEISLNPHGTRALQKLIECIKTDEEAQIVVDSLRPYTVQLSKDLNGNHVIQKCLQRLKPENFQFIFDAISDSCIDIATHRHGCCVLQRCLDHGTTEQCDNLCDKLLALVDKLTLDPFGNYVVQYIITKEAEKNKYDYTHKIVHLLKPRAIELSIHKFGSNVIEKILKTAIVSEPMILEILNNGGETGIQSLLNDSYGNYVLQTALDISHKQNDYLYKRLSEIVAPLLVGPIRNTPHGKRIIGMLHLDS

B1: Ic_S2_P5E.1_K5.1_C5.1_H5.1_A5.1_[T5C]_[T6A]_[A7T]_F5.1_[T8A]_[T9G]_[A10T]_T5.1 (ssRNA)
RNA: UUUGAUUAAUAUGAUAUCGUUCUUUCUUGUACAUAGUUUCUUUCUCGAUAUCAUAUUAAUCUUU
B2: Ic_S2_P5E.1_K5.1_C5.1_H5.1_A5.1_[T5G]_[A7T]_F5.1_[T9A]_[A10T]_T5.1 (ssRNA)
RNA: UUUGAUUAAUAUGAUAUCGUUCUUUCUUGUAGUUUAUUUCUUUCUCGAUAUCAUAUUAAUCUUU
B3: Ic_S2_P5E.1_K5.1_C5.1_H5.1_A5.1_[T5G]_[A7G]_F5.1_[T8C]_[T9C]_T5.1 (ssRNA)
RNA: UUUGAUUAAUAUGAUAUCGUUCUUUCUUGUAGUGCCAUUCUUUCUCGAUAUCAUAUUAAUCUUU
B4: Ic_S2_P5E.1_K5.1_C5.1_H5.1_A5.1_[T5C]_[A7C]_F5.1_[T8C]_[T9C]_[A10T]_T5.1 (ssRNA)
RNA: UUUGAUUAAUAUGAUAUCGUUCUUUCUUGUACUCCCUUUCUUUCUCGAUAUCAUAUUAAUCUUU
B5: Ic_S2_P5E.1_K5.1_C5.1_H5.1_A5.1_[T6A]_[A7T]_F5.1_[T8C]_[T9A]_[A10G]_T5.1 (ssRNA)
RNA: UUUGAUUAAUAUGAUAUCGUUCUUUCUUGUAUAUCAGUUCUUUCUCGAUAUCAUAUUAAUCUUU
B6: Ic_S2_P5E.1_K5.1_C5.1_H5.1_A5.1_[T5A]_[T6C]_[A7C]_F5.1_[T8G]_T5.1 (ssRNA)
RNA: UUUGAUUAAUAUGAUAUCGUUCUUUCUUGUAACCGUAUUCUUUCUCGAUAUCAUAUUAAUCUUU
B7: Ic_S2_P5E.1_K5.1_C5.1_H5.1_A5.1_[T5C]_[A7T]_F5.1_[T8G]_[A10T]_T5.1 (ssRNA)
RNA: UUUGAUUAAUAUGAUAUCGUUCUUUCUUGUACUUGUUUUCUUUCUCGAUAUCAUAUUAAUCUUU
B8: Ic_S2_P5E.1_K5.1_C5.1_H5.1_A5.1_[T5G]_[T6C]_F5.1_[T8C]_[A10T]_T5.1 (ssRNA)
RNA: UUUGAUUAAUAUGAUAUCGUUCUUUCUUGUAGCACUUUUCUUUCUCGAUAUCAUAUUAAUCUUU
B9: Ic_S2_P5E.1_K5.1_C5.1_H5.1_A5.1_[T5A]_[A7T]_F5.1_[T8C]_[T9A]_[A10C]_T5.1 (ssRNA)
RNA: UUUGAUUAAUAUGAUAUCGUUCUUUCUUGUAAUUCACUUCUUUCUCGAUAUCAUAUUAAUCUUU
B10: Ic_S2_P5E.1_K5.1_C5.1_H5.1_A5.1_[T6C]_[A7T]_F5.1_[T9A]_[A10T]_T5.1 (ssRNA)
RNA: UUUGAUUAAUAUGAUAUCGUUCUUUCUUGUAUCUUAUUUCUUUCUCGAUAUCAUAUUAAUCUUU
B11: Ic_S2_P5E.1_K5.1_C5.1_H5.1_A5.1_[T5G]_[T6C]_[A7T]_F5.1_[T8C]_[T9G]_[A10T]_T5.1 (ssRNA)
RNA: UUUGAUUAAUAUGAUAUCGUUCUUUCUUGUAGCUCGUUUCUUUCUCGAUAUCAUAUUAAUCUUU
B12: Ic_S2_P5E.1_K5.1_C5.1_H5.1_A5.1_[T6A]_[A7T]_F5.1_[T8A]_[T9C]_[A10G]_T5.1 (ssRNA)
RNA: UUUGAUUAAUAUGAUAUCGUUCUUUCUUGUAUAUACGUUCUUUCUCGAUAUCAUAUUAAUCUUU
B13: Ic_S2_P5E.1_K5.1_C5.1_H5.1_A5.1_[T5G]_[T6C]_[A7C]_F5.1_[T9C]_T5.1 (ssRNA)
RNA: UUUGAUUAAUAUGAUAUCGUUCUUUCUUGUAGCCUCAUUCUUUCUCGAUAUCAUAUUAAUCUUU
B14: Ic_S2_P5E.1_K5.1_C5.1_H5.1_A5.1_[T6C]_[A7T]_F5.1_[T9C]_[A10C]_T5.1 (ssRNA)
RNA: UUUGAUUAAUAUGAUAUCGUUCUUUCUUGUAUCUUCCUUCUUUCUCGAUAUCAUAUUAAUCUUU
B15: Ic_S2_P5E.1_K5.1_C5.1_H5.1_A5.1_[T5C]_[T6C]_[A7T]_F5.1_[T8A]_[A10T]_T5.1 (ssRNA)
RNA: UUUGAUUAAUAUGAUAUCGUUCUUUCUUGUACCUAUUUUCUUUCUCGAUAUCAUAUUAAUCUUU
B16: Ic_S2_P5E.1_K5.1_C5.1_H5.1_A5.1_[T5A]_[T6A]_F5.1_[T9C]_[A10T]_T5.1 (ssRNA)
RNA: UUUGAUUAAUAUGAUAUCGUUCUUUCUUGUAAAAUCUUUCUUUCUCGAUAUCAUAUUAAUCUUU
B17: Ic_S2_P5E.1_K5.1_C5.1_H5.1_A5.1_[T5A]_[T6C]_[A7C]_F5.1_[T8A]_[T9C]_[A10C]_T5.1 (ssRNA)
RNA: UUUGAUUAAUAUGAUAUCGUUCUUUCUUGUAACCACCUUCUUUCUCGAUAUCAUAUUAAUCUUU
B18: Ic_S2_P5E.1_K5.1_C5.1_H5.1_A5.1_[T6C]_F5.1_[T8G]_[A10C]_T5.1 (ssRNA)
RNA: UUUGAUUAAUAUGAUAUCGUUCUUUCUUGUAUCAGUCUUCUUUCUCGAUAUCAUAUUAAUCUUU
B19: Ic_S2_P5E.1_K5.1_C5.1_H5.1_A5.1_[T5C]_[T6A]_[A7G]_F5.1_[T9G]_[A10C]_T5.1 (ssRNA)
RNA: UUUGAUUAAUAUGAUAUCGUUCUUUCUUGUACAGUGCUUCUUUCUCGAUAUCAUAUUAAUCUUU
B20: Ic_S2_P5E.1_K5.1_C5.1_H5.1_A5.1_[T6C]_[A7C]_F5.1_[T8C]_T5.1 (ssRNA)
RNA: UUUGAUUAAUAUGAUAUCGUUCUUUCUUGUAUCCCUAUUCUUUCUCGAUAUCAUAUUAAUCUUU
B21: Ic_S2_P5E.1_K5.1_C5.1_H5.1_A5.1_[T5A]_[A7T]_F5.1_[T8A]_[A10C]_T5.1 (ssRNA)
RNA: UUUGAUUAAUAUGAUAUCGUUCUUUCUUGUAAUUAUCUUCUUUCUCGAUAUCAUAUUAAUCUUU
B22: Ic_S2_P5E.1_K5.1_C5.1_H5.1_A5.1_[T5C]_[T6A]_[A7G]_F5.1_[A10G]_T5.1 (ssRNA)
RNA: UUUGAUUAAUAUGAUAUCGUUCUUUCUUGUACAGUUGUUCUUUCUCGAUAUCAUAUUAAUCUUU
B23: Ic_S2_P5E.1_K5.1_C5.1_H5.1_A5.1_[T5A]_F5.1_[T9G]_[A10G]_T5.1 (ssRNA)
RNA: UUUGAUUAAUAUGAUAUCGUUCUUUCUUGUAAUAUGGUUCUUUCUCGAUAUCAUAUUAAUCUUU
B24: Ic_S2_P5E.1_K5.1_C5.1_H5.1_A5.1_[T6C]_F5.1_[T8A]_[A10G]_T5.1 (ssRNA)
RNA: UUUGAUUAAUAUGAUAUCGUUCUUUCUUGUAUCAAUGUUCUUUCUCGAUAUCAUAUUAAUCUUU
B25: Ic_S2_P5E.1_K5.1_C5.1_H5.1_A5.1_[A7T]_F5.1_[T9C]_[A10T]_T5.1 (ssRNA)
RNA: UUUGAUUAAUAUGAUAUCGUUCUUUCUUGUAUUUUCUUUCUUUCUCGAUAUCAUAUUAAUCUUU
B26: Ic_S2_P5E.1_K5.1_C5.1_H5.1_A5.1_[T6C]_[A7C]_F5.1_[T9A]_[A10T]_T5.1 (ssRNA)
RNA: UUUGAUUAAUAUGAUAUCGUUCUUUCUUGUAUCCUAUUUCUUUCUCGAUAUCAUAUUAAUCUUU
B27: Ic_S2_P5E.1_K5.1_C5.1_H5.1_A5.1_[T5C]_[A7C]_F5.1_[A10T]_T5.1 (ssRNA)
RNA: UUUGAUUAAUAUGAUAUCGUUCUUUCUUGUACUCUUUUUCUUUCUCGAUAUCAUAUUAAUCUUU
B28: Ic_S2_P5E.1_K5.1_C5.1_H5.1_A5.1_[T5C]_[T6G]_[A7T]_F5.1_[T8C]_[A10G]_T5.1 (ssRNA)
RNA: UUUGAUUAAUAUGAUAUCGUUCUUUCUUGUACGUCUGUUCUUUCUCGAUAUCAUAUUAAUCUUU
B29: Ic_S2_P5E.1_K5.1_C5.1_H5.1_A5.1_[T6C]_[A7C]_F5.1_[T8A]_[T9G]_[A10C]_T5.1 (ssRNA)
RNA: UUUGAUUAAUAUGAUAUCGUUCUUUCUUGUAUCCAGCUUCUUUCUCGAUAUCAUAUUAAUCUUU
B30: Ic_S2_P5E.1_K5.1_C5.1_H5.1_A5.1_[T5G]_F5.1_[T8C]_[T9C]_[A10T]_T5.1 (ssRNA)
RNA: UUUGAUUAAUAUGAUAUCGUUCUUUCUUGUAGUACCUUUCUUUCUCGAUAUCAUAUUAAUCUUU
B31: Ic_S2_P5E.1_K5.1_C5.1_H5.1_A5.1_[T5A]_[T6C]_F5.1_[T8C]_[T9C]_T5.1 (ssRNA)
RNA: UUUGAUUAAUAUGAUAUCGUUCUUUCUUGUAACACCAUUCUUUCUCGAUAUCAUAUUAAUCUUU

The data set concerns the target T1, PUF4 RNA-binding domain. Put plainly: Mg; RNA-MaP; 20 mM Na-HEPES pH 7.4, 30 mM KOAc, 0.75 mM MgCl2, 0.1% Tween-20, 5% glycerol, 0.1 mg/mL BSA, 2 mM DTT; 25 C; 0.0125-409.6 nM protein. The settings on record: tags: N-His6-TEV cleaved; C-SNAP kept, Cy3B-labelled; label: tethered on chip by stalled RNA polymerase.
Consider B1, for which binding was put at a Kd of 5.17 nM.

As to B2, the affinity, expressed as Kd, was 1.93 nM.

B3 had a Kd of 983 nM.

Molecule B4 returned an equilibrium dissociation constant (Kd) of 104 nM.

As to B5, binding was characterised by a dissociation constant (Kd) of 24.5 nM.

B6 showed a Kd of 12.9 nM.

Molecule B7 registered a Kd of 28.3 nM.

The molecule B8 came in with a Kd of 99.7 nM.

B9: the Kd stood at 599 nM.

For B10, binding was characterised by a dissociation constant (Kd) of 1.53 nM.

Molecule B11 had a Kd of 275 nM.

In turn, B12 had a Kd of 8.49 nM.

Consider B13, for which the Kd worked out at 74.8 nM.

As for B14, the equilibrium dissociation constant (Kd) came out at 14 nM.

Molecule B15 displayed a Kd of 9.6 nM.

B16 gave a dissociation constant Kd of 81.5 nM.

B17 showed a Kd of 1060 nM.

In turn, B18 returned a dissociation constant Kd of 218 nM.

Take B19: the Kd turned out to be 9.13 nM.

In the case of B20, the Kd turned out to be 9.09 nM.

Regarding B21, binding was put at a Kd of 113 nM.

The molecule B22 came in with a Kd of 9.39 nM.

Consider B23, for which the Kd turned out to be 75.2 nM.

In turn, B24 came in with a Kd of 122 nM.

In turn, B25 displayed a Kd of 16.4 nM.

In turn, B26 showed a Kd of 1.14 nM.

B27: binding was put at a Kd of 8.52 nM.

Molecule B28 registered a Kd of 1250 nM.

In the case of B29, the Kd was determined as 1560 nM.

The molecule B30 returned a Kd of 413 nM.

With B31, the Kd came to 278 nM.

In the case of UCUCUUCGUAUAUUUUCUCUU (ssRNA) [Ib_S1_P4E.1_K4.1_C4.1_H4.1_[T1C]_A4.1_F4.1_[A9T]_T4.1], the Kd turned out to be 1420 nM.

The molecule UCUCUUUUUAUAUUGUCUCUU (ssRNA) [Ib_S1_P4E.1_K4.1_C4.1_H4.1_[G2T]_A4.1_F4.1_[A9G]_T4.1] came in with a Kd of more than 2300 nM.

Take UCUCUUGGUAUAUUUUCUCUU (ssRNA) [Ib_S1_P4E.1_K4.1_C4.1_H4.1_[T1G]_A4.1_F4.1_[A9T]_T4.1]: binding was characterised by a dissociation constant (Kd) of 1210 nM.
